Entries after “also recorded” stand apart in the source; their conditions may differ. Ends that are not written are not given here. * marks the point of attachment. Biotin = O=C1N[C@H]2[C@H](CS[C@H]2CCCCC(=O)*)N1
B1: biotinylated-PQ65: PQ65 containing an N-terminal biotin (peptide, UniProt P26309 169-232, looked up, fragment)
chain: Biotin-PPNASPISHLRAQTKIVFKQNVAEACGLDMNKRILQYMPEPPKCSSLRQKSYIMKKRTHYSYQQ
B2: Cdc20-CB (I147A, P148A): control mutant with mutations in two residues within the C-box (protein, UniProt P26309 1-610, looked up, variant I147A P148A)
APC/C activator protein CDC20: MPESSRDKGNAAISGNRSVLSIASPTKLNILSSDWSRNQGKVSKNSLKRSSSLNIRNSKRPSLQASANSIYSRPKITIGAPPLIRRDSSFFKDEFDAKKDKATFSAYSSRSYPTIGSESVVSQTSLSQPTTSREVDEQFTVAADRYAAILQGASQNKVDPETLHEALPPPNASPISHLRAQTKIVFKQNVAEACGLDMNKRILQYMPEPPKCSSLRQKSYIMKKRTHYSYQQEQKIPDLIKLRKINTNPERILDAPGFQDDFYLNLLSWSKKNVLAIALDTALYLWNATTGDVSLLTDFENTTICSVTWSDDDCHISIGKEDGNTEIWDVETMSLIRTMRSGLGVRIGSLSWLDTLIATGSRSGEIQINDVRIKQHIVSTWAEHTGEVCGLSYKSDGLQLASGGNDNTVMIWDTRTSLPQFSKKTHTAAVKALSWCPYSPNILASGGGQTDKHIHFWNSITGARVGSINTGSQVSSLHWGQSHTSTNGGMMNKEIVATGGNPENAISVYNYETKFKVAEVVHAHEARICCSQLSPDGTTLATVGGDENLKFYKIFDPRCTGRSREDGLMDGMLGLIGKEGCRTNDKENRSKNSSEIHTRRPSSTSQYLIR

Assays:
APC/C [1] = experiment: Biotinylated peptide pull-down of purified APC/C, Western blot; type: binding, Saccharomyces cerevisiae; details: 20 μM biotinylated peptide, purified yeast APC/C, 1 h at 4 °C, streptavidin/Avidin beads, n = 3
Method: For APC/C purification, the APC/C which contain Cdc16-TAP-tag was isolated from 2 mL arrested yeast lysate by 120 μL IgG sepharose 6 Fast Flow beads (GE Healthcare Life Sciences) and incubate for 2 h at 4 °C on a rotating wheel. Beads were collected washed with 5 mL of APC/C wash buffer (200 mM Hepes pH8.0, 150 mM NaCl, 10% glycerol). Beads were resuspended in 150 μL of APC/C wash buffer contain 17.6 units of AcTEV protease (Invitrogen, Carlsbad, CA) at 4°C for 3 h with pipetting every 20 minutes. The purified APC/C was collected in the flow-through.
For APC/C binding assays, 20 μM biotinylated peptides or 20 μM peptides only as a negative control were incubated with purified APC/C and 100 μL APC/C wash buffer which contains phosphatase inhibitors (200 mM Hepes pH 8.0, 150 mM NaCl, 10% glycerol, 10 mM NaF, 1 mM NaVO4, 5 mM Na-pyrophosphate, 10 mM 2-glycerol phosphate) for 1 h at 4 °C. The mixtures were applied to 120 μL streptavidin beads (Dynabeads MyOne Streptavidin T1, Invitrogen) for 30 min at 4 °C with gentle pipetting every 10 min. Beads were washed with 1 mL of PBST buffer (Phosphate buffer saline and 0.1% Tween 20) three times SDS-PAGE protein sample was added directly. For APC/C binding competition experiments, the biotinylated peptide and 10-fold excess non-biotinylated peptides were added to purified APC/C at same time.
Free D-biotin in 10% DMSO was used for the control binding assays. For pre-coating APC/C with biotin, a modified APC/C purification was performed. 2 mL yeast lysate was incubated with 120 μL IgG Sepharose beads and additional 20.4 μM free biotin or non-biotin solvent as a positive control was added and samples were incubated for 2 h at 4 °C on a rotating wheel. Purified pre-coated APC/C was then removed from the IgG Sepharose following the standard purification procedure. 20 μM biotinylated peptides or 20 μM peptides as a negative control were incubated with pre-coated APC/C and 100 μL APC/C wash buffer which contain phosphatase inhibitors for 1 h at 4 °C. In addition, 20 μM biotinylated peptide was added and incubated with pre-coated APC/C in a non-biotin containing solvent as positive control. Pre-coated APC/C binding procedures were same as above. For pre-coating streptavidin beads with biotin, streptavidin beads were washed in the presence of 10.2 nmol/mL D-biotin in PBST buffer or non-biotin solvent as a positive control before use. Pre-coated streptavidin beads were incubated with purified APC/C-peptide complexes with an extra […] biotin for 30 minutes with gentle pipetting every 10 min at 4 °C.
Proteins were separated in SDS-PAGE gels and then were transferred to PVDF membrane. Blocking was performed by incubating samples in 20 mL PBST with 5% milk at 4 °C. Rabbit anti-tap (Thermo, CAB1001) was used as primary antibodies at a 1:1000 dilution and incubated for 2 hours at RT. Anti-rabbit HRP (Jackson, USA) was then used as secondary antibody at 1:5000 dilution and incubate for 1 hr at RT. Chemiluminescence signals were detected using an ImageQuant LAS 4000 (GE Healthcare Bio-Sciences, USA). For cell cycle timing Western blots anti-MYC and anti-Actin antibodies were employed (ABCAM, UK).

APC/C^Cdc20 = target: T1, APC/C^Cdc20 (Saccharomyces cerevisiae, UniProt P16522+P53886); experiment: biochemical; type: biochemical; details: 220 μM peptide; 35S-Pds1 substrate; time course 0-60 minutes; vs buffer only; n = 3
T1 construct: constructed within full-length Cdc20 by site-directed mutagenesis for analysis in vitro in the APC/C^Cdc20 assay; The APC/C was purified for enzyme assays from 1 mL of TAP-tagged Cdc16 yeast extract (SCSY51); made in house; host or cells: Cdc20: in vitro transcription/translation in rabbit reticulocyte lysate, used unpurified; APC/C: S. cerevisiae strain SCSY51 (Cdc16-TAP) extract, captured on IgG magnetic beads
Method: Full-length, radio-labeled protein purifications were preformed as previously described. ^35S-Pds1 was prepared in a 500 μL IVT/T (In Vitro Transcription/Translation) reaction (Promega, USA), which contained 400 μL rabbit reticulocyte lysate, 20 μL of L-^35S-methionine (PerkinElmer, USA), 10 μg of plasmid DNA, and the remaining volume as nuclease-free ddH2O as recommended by the manufacturer. The reaction mixture was incubated for 2 hours at room temperature and gently mixed every 30 minutes. The reaction was added to pre-equilibrated IgG Sepharose beads (GE Healthcare, USA) in Bio-spin disposable chromatography columns (Bio-Rad, USA) for binding for 2 hours at room temperature. To ensure efficient binding, the beads were re-suspended several times every 30 minutes. After binding, the beads were washed with 5 mL wash buffer, containing 200 mM 4-(2-hydroxyethyl)-1-piperazineethanesulfonic acid (HEPES) at pH 8.0, 150 mM NaCl, 10% (v/v) glycerol, and 1 mM dithiothreitol (DTT). The ^35S-Pds1 was cleaved from the beads using TEV (Tobacco Etch Virus) protease in 1x TEV buffer (Invitrogen, USA) for 2 hours at room temperature, and the mixture was re-suspended several times every 30 minutes to promote efficient cleavage. The elution was collected and concentrated by employing an Amicon Ultra filter column (Millipore, Ireland). The concentrated ^35S-Pds1 was collected in a new tube, and stored at -20 °C.
(§1) The production of Cdc20 or Cdh1 was prepared by IVT/T reactions, where 16 μL of rabbit reticulocyte lysate, 20 μM L-methionine, 0.4 μg of plasmid DNA, and a volume of nuclease-free ddH2O for a total volume of 20 μL. This freshly synthesized Cdc20 or Cdh1 protein was used directly in all APC/C assays after a 1-hour synthesis reaction at room temperature. The APC/C was purified for enzyme assays from 1 mL of TAP-tagged Cdc16 yeast extract (SCSY51) where extract was mixed with 50 μL 50:50 slurry magnetic beads (Invitrogen, Norway) for 2 hours at 4 °C. After incubation, the beads were washed with 3 mL APC/C wash buffer (200 mM of HEPES, 150 mM of NaCl and 10% (v/v) of glycerol). APC/C bound to IgG magnetic beads was used directly in the enzyme assays.
(§2) APC/C assays were performed by adding the reaction contents in following order: 4.3 μL of QAH buffer, 20 μL of rabbit reticulocyte lysate containing Cdc20 or Cdh1 with or without an additional volume of recombinant checkpoint protein(s) or inhibitor peptides, 2.4 μL ubiquitin aldehyde (Boston Biochem, USA), APC/C, 16 μL pre-charged E1/E2/ATP/ubiquitin mix, and 13.3 μL of ^35S-Pds1 with QAH buffer (20 mM HEPES at pH 8.0, 100 mM NaCl, and 1 mM MgCl2). The E1/E2/ATP/ubiquitin mix were pre-charged by mixing 1 μL of E1 (Boston Biochem, USA), 1 μL of E2 (Boston Biochem, USA), 14.4 μL of ATP, 14.4 μL of […] (Boston Biochem, USA), and 17.2 μL of QAH buffer and incubated for 15 minutes at room temperature. Approximately 15 μL of samples were taken out at each time point, and the reaction was stopped by the addition of 2x protein sample buffer (125 mM Tris-HCl pH 6.8, 4% SDS, 20% glycerol, and 0.002% bromophenol blue, with 10% (final v/v) 2-mercaptoethanol added in fresh directly before use).
For inhibitor titration and time-course experiments, recombinant Bub3, Mad2, Mad3, and the Mad3-Bub3 complex were expressed and purified as previously described. […] For inhibition of APC/C the co-factor Cdc20 or Cdh1 was made fresh by IVT/T, and pure recombinant checkpoint proteins or inhibitor peptides were added to the IVT/T mixture and incubated for an additional hour at room temperature. In titrations, a dilution series of the checkpoint protein(s) were made before incubation with the Cdc20 co-factor. SDS-PAGE was performed using stand protocols (BioRad, USA).

APC/C [2] = experiment: APC/C activity promoted by mutant Cdc20 alleles (Pds1 remaining); type: biochemical, Saccharomyces cerevisiae
Method: as §1, §2
For APC/C activity assays dried-gels were exposed on a phosphor screen cassette to detect radio-labeled protein. The phosphor screen was scanned by a Typhoon phosphor-imager (GE Healthcare Bio-Sciences, USA), and radio-labeled protein bands in gels were quantified by employing the ImageQuant software (GE Healthcare Bio-Sciences, USA) according to the manufacturer’s protocols. Data were expressed as mean ± standard deviation, and was analyzed using Student’s t-test. Graphs were created using Kaliedograph 4.0 (Synergy Software, USA) and estimates of best-fit curves of a 4-parameter Hill equation were generated to obtain estimates for the median inhibitory concentrations (IC50) and Hill coefficients (Hc) using IgorPro 6.01 (Wavemetrics, USA).
By sequence alignment and amino acid homology alone, the budding yeast KILR-motif may be defined as 201-RILQ-204 (Fig 1A). However, the next residue, Tyrosine Y205 had previously been isolated in a genetic screen for spindle checkpoint by-pass alleles of Cdc20 [21], indicating this Y205 residue may be a target of the spindle checkpoint inhibition, and thus might also be a functional KILR-motif residue that contributes to APC/C activation. To clarify this possibility, we took the initial step to characterize several of the previously isolated spindle checkpoint by-pass mutant alleles of Cdc20 [21], and also Cdc20 mutants in the two highly conserved residues within the Mad2-binding motif, the aspartic acid at D197 of unknown function and the highly conserved Leucine L203 within the KILR-motif based on sequence alignment and homology. […]

Row | Molecule | binding to APC/C (in words) (APC/C [1]) | inhibition of APC/C^Cdc20 activity (in words) (APC/C^Cdc20) | ability of mutant Cdc20 to promote APC/C activity (in words) (APC/C [2]; vs wild type Cdc20, n = 3) | ability of mutant Cdc20 to promote APC/C activity (in words) (APC/C [2]; vs wild type Cdc20, n = 3, listed as Cdc20-CB)
1 | biotinylated-DQ36: DQ36 containing an N-terminal biotin (Biotin-DMNKRILQYMPEPPKCSSLRQKSYIMKKRTHYSYQQ) | able to pull-down purified APC/C | – | – | –
2 | PS46: N-terminal 46 amino acid peptide called PS46 (Cdc20 167–213) (LPPPNASPISHLRAQTKIVFKQNVAEACGLDMNKRILQYMPEPPKCS; UniProt P26309 167-213, looked up, fragment) | able to bind to the APC/C directly, although consistently weaker binding was observed relative to DQ36; also recorded: consistently observed to have weaker APC/C binding activity relative to wild type DQ36 | observed to inhibit APC/C^Cdc20 | – | –
3 | DK27: defined Mad2-binding motif peptide DK27 (Cdc20 197–223) (Biotin-DMNKRILQYMPEPPKCSSLRQKSYIMK) | retained the ability to bind with the APC/C; also recorded: displayed the ability to bind APC/C similar to the control peptide DQ36 | displayed a diminished ability to inhibit APC/C^Cdc20 although a significant difference with the buffer only control was still observed | – | –
4 | SQ19: C-terminal 19 amino acids, SQ19 (Cdc20 213–232) peptide (SSLRQKSYIMKKRTHYSYQQ; UniProt P26309 213-232, looked up, fragment) | displayed the ability to bind APC/C similar to the control peptide DQ36 | displayed a low level of inhibitory activity | – | –
5 | B1 | able to pull-down purified APC/C | – | – | –
6 | B2 | – | – | displayed decreased APC/C activity; also recorded: consistently displayed a decrease in APC activity | had no APC/C activity

— paper PMC5993284, “Peptide inhibitors of the anaphase promoting-complex that cause sensitivity to microtubule poison” (PLoS ONE, 2018)
